Test results as given in patent US20140302034A1 (STEM CENTRX, published 2014).

T1: recombinant human EFNA3 His fusion protein (human, UniProt P52797 23-214)
T1 construct: also called ephrinA3-His; immobilized human EFNA3; not shown: His tag
T1 sequence: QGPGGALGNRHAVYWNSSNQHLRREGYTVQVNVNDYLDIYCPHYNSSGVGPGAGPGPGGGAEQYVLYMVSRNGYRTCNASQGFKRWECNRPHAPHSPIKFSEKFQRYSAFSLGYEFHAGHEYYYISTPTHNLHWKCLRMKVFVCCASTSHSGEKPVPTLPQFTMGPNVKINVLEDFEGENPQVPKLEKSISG

T2: mouse EFNA3 (mouse, UniProt O08545)
T2 construct: the sheet prints only 'Ms XR'; also called mouse ephrin-A3 homolog
T2 sequence (ligand, looked up): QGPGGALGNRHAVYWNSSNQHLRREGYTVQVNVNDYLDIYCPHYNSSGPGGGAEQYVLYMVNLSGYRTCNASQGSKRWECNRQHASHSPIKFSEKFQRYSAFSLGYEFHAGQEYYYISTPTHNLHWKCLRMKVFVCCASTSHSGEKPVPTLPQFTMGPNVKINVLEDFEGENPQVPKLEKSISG


Legend:
[1] = target: T1, recombinant human EFNA3 His fusion …; experiment: BLI (ForteBio RED), antigen concentration series; column Affinity (nM)
Procedure: Various methods were used to analyze the immunochemical characteristics of selected EFNA1 and EFNA3 modulators generated as set forth above. Specifically, a number of these antibodies were characterized as to affinity, kinetics, binning, and cross reactivity with regard to cynomolgus and mouse homologs (e.g., by ForteBio). The reactivity of the modulators was also measured by Western blot using reduced and non-reduced samples to provide some indication as to whether the epitopes were linear or not. In addition, the antibodies were tested for their ability to neutralize (e.g., block receptor ligand interaction as per Example 11), and were benchmarked for their relative EC₅₀ of killing by in vitro cytotoxicity assay (e.g., as per Examples 12-14). The results of this characterization are set forth in tabular form in FIG. 8 for modulators that primarily react with EFNA1 and in FIG. 9 for modulators that primarily react with EFNA3. Affinities and kinetic constants kₒₙ and koff of the selected modulators were measured using bio-layer interferometry analysis on a ForteBio RED (ForteBio, Inc.) with a standard antigen concentration series.

mouse EFNA3 = target: T2, mouse EFNA3; experiment: cross-reactivity with the mouse homolog (e.g. by ForteBio)
[2] = target: recombinant human EFNA1 His fusion protein (human) (UniProt P20827); experiment: BLI (ForteBio RED), antigen concentration series; column Affinity (nM)
recombinant human EFNA1 His fusion protein (human), sequence (P20827 19-182 limits assumed): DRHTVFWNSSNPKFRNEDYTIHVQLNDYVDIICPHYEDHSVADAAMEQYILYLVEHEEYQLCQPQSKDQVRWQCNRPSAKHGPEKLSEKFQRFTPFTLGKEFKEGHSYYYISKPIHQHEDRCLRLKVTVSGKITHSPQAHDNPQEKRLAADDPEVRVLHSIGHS

Binder	Kd [1] [nM]	binding result (mouse EFNA3)	Kd [2] [nM]
SC11.34 (antibody, V domains shown, Murine monoclonal antibody from a hybridoma; also called EFNA3 modulator SC11.34) VH: DVHLQETGPGLVKPSQSLSVTCTVTGYSITSDYAWNWIRQFPGNKLEWMGYISYSGGTRYNPSVKSRISITRDTSKNQFFLQLNSVTTEDTATYYCARGPYAGYPAWFDYWGPGTLVTVSA VL: ENVLTQSPAIMSASLGEKVTMSCRANSSINYMYWYQQKSDASPKLWIYYTSNLAPGVPARFSGSGSGNSYSLTISSMEGEDAATYYCQQFTSSPWTFGGGTKLEIK	2	no binding	–
SC9.20 (antibody, V domains shown) VH: DVQLQESGPGLVKPSQSLSLTCSVTGYSITSGYYWNWIRQFPGNRLEWMAYISYDGSNDYNPSLKNRISITRDTSKNQFFLKLNSVTTEDTATYYCARGYPILFAYWGQGTLVTVSA VL: DIKMTQSPSSMNASLGERVSITCKTSQDINSYLSWLQQKPGKSPKTLIYRANRLVDGVPSRFSGSGSGQDYSLTISSLEYEDMGIYYCLQYDEFPLTFGIGTKLELK	–	–	0.5
SC11.32 (antibody, V domains shown, Murine monoclonal antibody from a hybridoma; also called EFNA3 modulator SC11.32) VH: QVQLQQPGAEIVRPGASVKLSCKASGYTFTAYWMHWVKQRPGQGPEWIGAIDPSDSYTYYNQKFKGKATLTVDTSSNSAYMQLSSLTSEDSAVYFCARWDYYDGNWGQGTTLTVSS VL: DVVMTQTPLSLPVSLGDQASISCRSSQSLVHSDGNTYLHWYLQKPGQSPKLLIYRVSNRFSGVPDRFSGSGSGTDFTLKISRVEAEDLGVYFCSQSTHVPYTFGGGTKLEIK	0.2	–	–
SC11.51 (antibody, V domains shown, Murine monoclonal antibody from a hybridoma; also called EFNA3 modulator SC11.51) VH: EVQLQQSGPELVKPGASVKISCKASGYTFTDYYMNWVKQTHGKSLEWIGDITPNSGGPTYNQNFKGKATLTVDRSSTTAFMELRSLTSDDSAVYYCVRSAYYYGTNYDFDYWGQGTTLTVSS VL: QIVLTQSPAIMSASPGEKVTMTCSASSSVTYMYWYQQKPGSSPKPWIYRTSNLASGVPTRFSGSGSGTSYSLTISSVEAEDTATYYCQQYSDYPLTFGAGTKLELK	1	–	–
